In paper PMC9604439, “Mutation Hotspot for Changing the Substrate Specificity of β-N-Acetylhexosaminidase: A Library of GlcNAcases” (International Journal of Molecular Sciences, 2022):
Residue numbers refer to the chain shown, from its start. Names may count otherwise.

B1: TfHex (β-N-acetylhexosaminidase from Talaromyces flavus) (Talaromyces flavus; E332A) (protein)
chain: VAVNPLPAPRSITWGTSGPISVPHNVDVKLPKNAIINDAWERAWTSIKQLRWVPQATEAPISSYEPFPTVAPTSASTASSTPLPSSSAAAVAARSQKRGHQKGSHEKRGHSQSTLRTVTVTVSDLNADLQAEVDESYTLVLDSGSSTLAITANTTWGALHAFTTLQQLVIYQDNSLIIEQPVHIEDSPLYPWRGVMIDTGRNFITVPKIKEQIDGMALSKLNILHWHLDDSQSWPVHMDTYPQMTNDAYSPWQTYSHEDIKDIIEYARARAVRVVPEVDMPGHSAAGWQQVDPSIVACAHSWWSNDNWPYHTAVAPTPGQLDPLNNKTYGVVEKVYNELSGIFTDDFFHVGGDELQTGCYNFSTYVSDYLAADPSRTYNDVTQYWVDHAFPIFKKIQNRKLVIWEDLIINNPHAPNVSTENLLVQSWNNGLTNINNLTNLGYDVLVSSSDFMYLDCGYGGFVTNDPRYDVMVNPDAVDGLANFNWGGNGGSWCAPYKTWQRIYDYDFTTNLTDAQAAHVKGAVAPLWSEQVDDTVISGKMWPRAAALAELVWSGNKDPKTGDKRTTYMTQRILNFREYLVANGVQAAPLVPKYCLQHPHSCDLYYDQTAVV
notes: secreted via alpha-factor, pPICZαA, Pichia pastoris KM71H, cation-exchange purified; tetramer of two catalytic subunits and two non-covalently linked propeptides
B2: TfHex (β-N-acetylhexosaminidase from Talaromyces flavus) (Talaromyces flavus; E332N) (protein)
chain: B1 chain with A315N
notes: as for B1
B3: TfHex (β-N-acetylhexosaminidase from Talaromyces flavus) (Talaromyces flavus; E332G) (protein)
chain: B1 chain with A315G
notes: as for B1
B4: TfHex (β-N-acetylhexosaminidase from Talaromyces flavus) (Talaromyces flavus; E332T) (protein)
chain: B1 chain with A315T
notes: as for B1

Substrate: CC(=O)N[C@H]1[C@H](Oc2ccc([N+](=O)[O-])cc2)O[C@H](CO)[C@@H](O)[C@@H]1O
Assay: discontinuous p-nitrophenolate release assay, non-linear regression
Format: biochemical, Talaromyces flavus
Conditions: McIlvaine buffer pH 5.0, 25 °C

Protein | Km [µM] | kcat [s⁻¹]
B1 | 880 ± 70 | 30 ± 1
B2 | 1220 ± 70 | 22.5 ± 0.4
B3 | 1800 ± 200 | 51 ± 2
B4 | 800 ± 100 | 13.3 ± 0.4
